The test system of the experiment is cPP cells. Description: Omission of individual components from complete cPP culture medium on 3T3-J2 feeders (phase contrast, qRT-PCR). It counts as cell-based, human. How it is done:
Gentle cell dissociation reagent (STEMCELL Technologies, 07174) was used to passage cPP cells as aggregates that were then seeded at a 1:6 split ratio onto a layer of 3T3-J2 feeders (0.5×10^6 to 1×10^6 cells/cm^2) in medium composed of advanced DMEM/F12 (Thermo Fisher Scientific, 21634010), 2 mM L-glutamine (Thermo Fisher Scientific, 25030), 100 U/mL penicillin/streptomycin (Thermo Fisher Scientific, 15140122), 1× N2 supplement (Thermo Fisher Scientific, 17502-048), 1× B27 supplement (Thermo Fisher Scientific, 17504-044), 30 nM dexamethasone (STEMCELL Technologies, 72092), 50 ng/mL EGF (R&D Systems, 236-EG-200), 50 ng/mL FGF10 (Source Bioscience, ABC144), 3 μM RA (Sigma, R2625), 10 μM SB431542 (Calbiochem, 616464), and 1 μM DAPT (Sigma, D5942). If plating single cPP cells, complete medium was supplemented with 10 μM Y27632 for the first 48 hr (Sigma, Y0503). Medium was completely replenished every 2-3 days.
RNA was isolated from samples using an RNeasy mini kit (Qiagen, cat # 74104) and reverse transcribed to generate cDNA using a high-capacity reverse transcription kit and random hexamer primers (Applied Biosystems, 4368814,1 μg RNA per 20 μL reaction). Quantitative RT-PCR was carried out using SYBR Select Mastermix (Applied Biosystems, 4472908). Data were analyzed using the ΔΔCT method, and normalized to expression of the housekeeping gene TBP in each sample. […]
In general terms: Quantitative PCR measures a nucleic acid by following its amplification.

B1: FGF10: fibroblast growth factor 10, growth factor in the cPP culture medium (50 ng/mL) (protein, UniProt O15520 38-208, looked up)
Fibroblast growth factor 10: QALGQDMVSPEATNSSSSSFSSPSSAGRHVRSYNHLQGDVRWRKLFSFTKYFLKIEKNGKVSGTKKENCPYSILEITSVEIGVVAVKAINSNYYLAMNKKGKLYGSKEFNNDCKLKERIEENGYNTYASFNWQHNGRQMYVALNGKGAPRRGQKTRRKNTSAHFLPMVVHS
On to B1, for which the “Effect of removing the component on cPP expansion, colony size and morphology” value (component individually omitted from complete medium, cPP cells cultured 6 days on 3T3-J2 feeders) was “did not significantly affect colony size or morphology in the short term”. Also, for the setting “component removed from the culture media over multiple passages”, the “Effect of removing the component on viability” value is given as “noticeable loss of viability”.

Values taken from patent publication US20200140826A1, “Maintenance and Expansion of Pancreatic Progenitor Cells” (AGENCY FOR SCIENCE, TECHNOLOGY AND RESEARCH, priority 2017, published 2020).
